Source: US20110190477A1 (G2 INFLAMMATION, published 2011)

Columns and labels:
[1] = molecular target: T1, peptide 23 (33 mer, full length of the 2nd extracellular loop of hC5aR) (human, N-terminal biotin); test: peptide ELISA, biotin peptide on streptavidin plate
T1 construct: also called peptide no; 23
T1 peptide: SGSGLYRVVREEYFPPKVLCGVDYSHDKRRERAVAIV

human C5a receptor = molecular target: T2, human C5a receptor (human, UniProt P21730 1-350); test: PK/PD model (NONMEM) fitted to serum concentration and receptor occupancy in hC5aR transgenic mice, pharmacology study column
T2 construct: On human neutrophils, L1.2/hC5aR transfectants or neutrophils of hC5aR knock-in mice; also called hC5aR; C5aR1
T2 chain: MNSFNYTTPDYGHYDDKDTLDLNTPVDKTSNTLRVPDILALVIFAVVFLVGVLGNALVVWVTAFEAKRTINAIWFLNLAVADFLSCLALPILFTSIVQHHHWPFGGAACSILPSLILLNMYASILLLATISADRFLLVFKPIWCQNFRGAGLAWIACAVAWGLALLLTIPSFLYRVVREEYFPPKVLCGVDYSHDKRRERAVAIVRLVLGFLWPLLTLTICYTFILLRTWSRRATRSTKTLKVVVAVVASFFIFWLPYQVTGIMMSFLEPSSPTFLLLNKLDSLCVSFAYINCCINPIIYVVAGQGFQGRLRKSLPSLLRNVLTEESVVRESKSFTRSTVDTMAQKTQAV
Excerpt: NONMEM VI (non-linear mixed effects modelling software) with first order conditional estimation (FOCE) was used for modelling, and S-PLUS® 8.0 (Insigthful) was used for graphics and data handling. Evaluation of—and discrimination between—intermediate models was based on objective function values and standard graphical evaluation methods. In terms of objective function value, changes in this value were assumed to be chi-squared distributed (for nested models), and criteria for expanding the model were defined and used accordingly.
Toxicokinetics from the toxicology study in transgenic mice and PK/PD data from the pharmacology study was integrated to assess the relationship between pharmacokinetics and occupancy. […] This is consistent with other studies, observing higher clearance for high doses, due to saturation of the FcRN receptor (Hansen and Balthasar, 2002).

B1: humanized anti-C5aR antibody hAb-Q (antibody, human IgG4 S228P, kappa)
light: DVVMTQSPLSLPVTLGEPASISCRSSQSLVHSNGNTYLHWYLQKPGQSPQLLIYKVSNRFSGVPDRFSGSGSGTDFTLKISRVEAEDVGVYFCSQSTLVPLTFGQGTKLEIKRTVAAPSVFIFPPSDEQLKSGTASVVCLLNNFYPREAKVQWKVDNALQSGNSQESVTEQDSKDSTYSLSSTLTLSKADYEKHKVYACEVTHQGLSSPVTKSFNRGEC
heavy: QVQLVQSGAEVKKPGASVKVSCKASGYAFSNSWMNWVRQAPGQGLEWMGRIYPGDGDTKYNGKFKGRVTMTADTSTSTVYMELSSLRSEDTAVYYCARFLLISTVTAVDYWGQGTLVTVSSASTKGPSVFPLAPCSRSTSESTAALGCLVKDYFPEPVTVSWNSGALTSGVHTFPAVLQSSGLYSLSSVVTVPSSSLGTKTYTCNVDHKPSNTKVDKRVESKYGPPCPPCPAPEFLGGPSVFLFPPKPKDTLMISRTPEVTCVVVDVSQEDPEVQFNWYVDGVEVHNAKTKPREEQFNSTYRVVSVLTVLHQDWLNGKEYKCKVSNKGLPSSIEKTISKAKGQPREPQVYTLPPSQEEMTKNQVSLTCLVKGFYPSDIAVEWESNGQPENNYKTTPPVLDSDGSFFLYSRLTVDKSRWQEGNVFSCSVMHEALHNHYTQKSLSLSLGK
notes: IgG4 with the Ser228Pro mutation; also called antibody Q; anti-C5aR ab
- binding result [1]: binds
- Kd (human C5a receptor): 0.175 µg/mL
